We go through two substances from PMC2133122.

Several values for one entry are separate records, joined by “and”; a condition that tells them apart may be missing. Identical values can stand only once. A value given as a limit tells only on which side of the number the result lay.

In assay [1] the target is mutant mtHsp70 encoded by the allele ssc1-2 (Ssc1-2p) (S. cerevisiae (endogenous in yeast mitochondria)) (UniProt P0CS90). The experiment in a line: co-IP.
Assay [2] has as its target mitochondrial Hsp70 (mtHsp70, Ssc1p), wild type (S. cerevisiae (endogenous in yeast mitochondria)) (UniProt P0CS90). The experiment in a line: co-IP.

In assay [1], “Su9-DHFR, imported into mitochondria (from UniProt P00375 1-187)” registered a fold efficiency of binding against wild-type mtHsp70 greater than 4 fold.
In the case of “Tim44Δ18 (Tim44 with a deletion of residues 185–202) (natural protein)”, in assay [2], the fold reduction of complex formation with mtHsp70 against authentic Tim44 was 3 fold and 4 fold; the percent reduction of complex formation with mtHsp70 against authentic Tim44 turned out to be 70%.
